Experimental data taken from article PMC10439950 (2023).
Where a chain is given by its changes, count along the chain named.

B1: extracellular domain of cynomolgus CD98hc (domain or fragment)
chain: ELPAQKWWHTGALYRIGDLQAFQGHGSGNLAGLKGRLDYLSSLKVKGLVLGPLHKNQKDDVAQTDLLQIDPNFGSKEDFDNLLQSAKKKSIRVILDLTPNYRGENLWFSTQVDSVATKVKDALEFWLQAGVDGFQVRDIENLKDASSFLAEWENITKGFSEDRLLIAGTNSSDLQQIVSLLESNKDLLLTSSYLSDSSFTGEHTKSLVTQYLNATGNRWCSWSLSQAGLLTSFLPAQLLRLYQLMLFTLPGTPVFSYGDEIGLKAAALPGQPVEAPVMLWDESSFPDIPGAVSANMTVKGQSEDPGSLLSLFRQLSDQRSKERSLLHGDFHTFSSGPGLFSYIRHWDQNERFLVVLNFGDVGLSAGLQASDLPASASLPTKADLVLSTQPGREEGSPLELERLKLEPHEGLLLRFPYVA
B2: extracellular domain of human CD98hc (domain or fragment)
chain: RAPRCRELPAQKWWHTGALYRIGDLQAFQGHGAGNLAGLKGRLDYLSSLKVKGLVLGPIHKNQKDDVAQTDLLQIDPNFGSKEDFDSLLQSAKKKSIRVILDLTPNYRGENSWFSTQVDTVATKVKDALEFWLQAGVDGFQVRDIENLKDASSFLAEWQNITKGFSEDRLLIAGTNSSDLQQILSLLESNKDLLLTSSYLSDSGSTGEHTKSLVTQYLNATGNRWCSWSLSQARLLTSFLPAQLLRLYQLMLFTLPGTPVFSYGDEIGLDAAALPGQPMEAPVMLWDESSFPDIPGAVSANMTVKGQSEDPGSLLSLFRRLSDQRSKERSLLHGDFHAFSAGPGLFSYIRHWDQNERFLVVLNFGDVGLSAGLQASDLPASASLPAKADLLLSTQPGREEGSPLELERLKLEPHEGLLLRFPYAA
B3: ATV^CD98hc.6.8:DNP (designed binder)
chain: DKTHTCPPCPAPELLGGPSVFLFPPKPKDTLMISRTPEVTCVVVDVSHEDPEVKFNWYVDGVEVHNAKTKPREEQYNSTYRVVSVLTVLHQDWLNGKEYKCKVSNKALPAPIEKTISKAKGQPREPQVYTLPPSRDELTKNQVSLTCLVKGFYPSDIAVLWNSRFVLENNYKTTPPVLDSDGSFFLYSKLTVDKSRWQQGEIFACNVYHEALHNHYTFKNLALSPGK
B4: TV6.6 as the ATV^CD98hc:DNP clone (designed binder)
chain: B3 chain with E201N

How the values were obtained:
Assay in all cases: SPR
TV6.d6 = biological target: TV6.d6
TV6.38 = biological target: TV6.38
TV6.d3 = biological target: TV6.d3
TV6.d12 = biological target: TV6.d12
ATV^CD98hc.6.39 = ATV^CD98hc.6.39 (human, UniProt P01857 = IgG part)
ATV^CD98hc.6.29:DNP = ATV^CD98hc.6.29:DNP (human, UniProt P01857 = IgG part)
[1] = biological target: B1

B1 gave a Kd (TV6.d6) of 5000 nM, a Kd (TV6.38) of 250 nM and a Kd (TV6.d3) of 2500 nM. It also gave a Kd (TV6.d12) of 6000 nM and a Kd (ATV^CD98hc.6.39) of 485 nM.

With B2 the Kd (TV6.d6) was 550 nM, the Kd (ATV^CD98hc.6.29:DNP) was 20 nM and the Kd (TV6.38) was 43 nM. It also gave a Kd (TV6.d3) of 275 nM and a Kd (TV6.d12) of 2100 nM.

In the case of B3, the Kd [1] is reported as 890 nM.

Binder B4 has a Kd [1] of 2100 nM.
